PMC5053661, “Human papillomavirus oncogenic E6 protein regulates human β-defensin 3 (hBD3) expression via the tumor suppressor protein p53”

Target: p53 (UniProt P04637 1-393)
Experiment: EMSA; 100 ng p53, 100 nM probe; EMSA: 100 ng recombinant p53, 100 nM annealed biotin probe; binding buffer, salt, pH and temperature not given (ref 63)
Conditions: protein: commercial, chain copies: 4, label: 3'-biotin

p53, sequence (P04637 whole entry): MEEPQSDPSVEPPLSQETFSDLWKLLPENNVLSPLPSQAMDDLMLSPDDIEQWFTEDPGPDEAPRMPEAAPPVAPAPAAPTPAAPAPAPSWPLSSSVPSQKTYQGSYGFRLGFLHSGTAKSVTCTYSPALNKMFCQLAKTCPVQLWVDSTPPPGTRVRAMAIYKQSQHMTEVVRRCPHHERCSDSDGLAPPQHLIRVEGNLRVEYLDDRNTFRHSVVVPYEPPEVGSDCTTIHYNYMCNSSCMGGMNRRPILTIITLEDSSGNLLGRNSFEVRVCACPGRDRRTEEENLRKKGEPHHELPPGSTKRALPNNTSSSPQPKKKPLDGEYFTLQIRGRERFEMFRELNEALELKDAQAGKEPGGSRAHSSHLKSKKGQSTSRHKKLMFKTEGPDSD

B1: hBD3 -1339 mutant probe (dsDNA)
DNA 1: TGACTGTCGACCCATCTACCTGGCCCTAAATTG
DNA 2: CAATTTAGGGCCAGGTAGATGGGTCGACAGTCA
Does B1 bind?
Result: no binding

B2: hBD3 promoter -1339 p53 probe (dsDNA)
DNA 1: TGACTGTCTGCCCATCTACCTGGCCCTACAT
DNA 2: ATGTAGGGCCAGGTAGATGGGCAGACAGTCA
Does B2 bind?
Result: binds
